# Measurements from publication PMC10399232.
# Target: eIF4E (mouse (endogenous in cerebellum)) (UniProt P63073)
# Assay: pull-down; m7GTP beads (30 ul) incubated with 500 ug mouse cerebellar lysate for 1 h at 4 C; lysis buffer 150 mM NaCl, 10 mM MgCl2, 30 mM tris pH 8.0, 1 mM DTT, 1.5% Triton X-100; washed three times in 100 mM KCl, 50 mM tris pH 7.4, 5 mM MgCl2, 0.5% Triton X-100; eIF4E and eIF4G blotted; eIF4G/eIF4E ratio normalized to the WT mean; CYFIP1 OE and WT mice
# Sequence of UniProt P63073 (P63073 whole entry): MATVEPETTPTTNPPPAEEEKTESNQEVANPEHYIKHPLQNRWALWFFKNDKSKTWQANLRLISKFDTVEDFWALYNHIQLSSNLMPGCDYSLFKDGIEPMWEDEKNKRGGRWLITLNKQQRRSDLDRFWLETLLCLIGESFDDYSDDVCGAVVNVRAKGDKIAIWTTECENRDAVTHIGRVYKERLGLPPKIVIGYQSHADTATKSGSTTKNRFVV
substance,measurement,value
eIF4G (natural protein),"eIF4G/eIF4E binding ratio in CYFIP1 OE mice, normalized to WT mean (fold of WT mean)",1.68
